Biological target: T1, human IL-1R3 expressed on cells (SK-MEL-30 and other human cell lines) (human, UniProt Q9NPH3 21-570)
T1 construct: whole, on cells; also called hIL1R3; IL-1RAcP
T1 sequence (looked up): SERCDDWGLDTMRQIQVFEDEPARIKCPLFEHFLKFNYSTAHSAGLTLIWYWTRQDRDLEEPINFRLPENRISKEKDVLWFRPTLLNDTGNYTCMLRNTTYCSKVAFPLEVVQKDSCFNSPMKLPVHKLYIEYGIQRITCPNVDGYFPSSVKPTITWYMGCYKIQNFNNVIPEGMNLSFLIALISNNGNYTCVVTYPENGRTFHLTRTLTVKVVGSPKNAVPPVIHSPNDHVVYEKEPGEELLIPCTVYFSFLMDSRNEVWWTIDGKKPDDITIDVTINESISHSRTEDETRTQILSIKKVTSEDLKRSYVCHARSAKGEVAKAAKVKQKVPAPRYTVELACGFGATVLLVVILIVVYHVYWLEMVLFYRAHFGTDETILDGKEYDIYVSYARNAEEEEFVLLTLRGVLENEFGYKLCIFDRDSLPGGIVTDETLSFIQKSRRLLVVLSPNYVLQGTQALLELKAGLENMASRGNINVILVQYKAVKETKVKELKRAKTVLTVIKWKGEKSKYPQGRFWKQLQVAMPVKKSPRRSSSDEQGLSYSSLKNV
Assay: flow cytometry on the high-IL-1R3-expressing cell line SK-MEL-30

B1: MAB-16-0030, humanized anti-IL-1R3 IgG1-LALA antibody (antibody, V domains shown)
VH: EVQLEESGGRLVQPGTSLRLSCAVSGFSLSSYDMSWVRQAPGKGLEWVSTIYIGGTTAYASWPKGRFTISKTNSKNTLYLQMNSLRAEDTAVYFCARLQGANYYNSLALWGQGTLVTVSS
VL: DVQMTQSPSSLSASVGDRVTITCQASQSIYSFLSWYQQKPGQAPKLLIYAASDLESGVPSRFSGSGSGTDFTLTISSLQPEDFATYYCQCNYIIDYGAFGQGTKVVIKR
notes: Humanized IgG1 with L234A and L235A (IgG1-LALA); also called anti-hIL-1R3 antibody MAB-16-0030; IgG1-LALA version of MAB-16-0030
Work on B1 yielded an EC50 of 0.307 µg/mL.

— patent EP4803542A2 (Sanofi Biotechnology, dated 2026)
